Assay: yeast display, Sf9 membrane polyspecificity reagent, FACS + sequencing; frameworks hold sequencing errors
Procedure, shortened: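 Galactose-induced (36–48 hours) yeast carrying a synthetic nanobody display library were exposed to 10% biotinylated, detergent-solubilized Sf9 membrane reagent at 4 °C for 1 hour. FACS followed streptavidin microbead enrichment, using low and high (top ~1%) gates for expression (anti-HA) and reagent binding (streptavidin). Colony PCR, MiSeq 2 × 250 sequencing and CDR-length filtering followed. Labels for polyreactivity reflect the gate of origin.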

Row | Sequence | polyreactivity (PSR sort gate)
1 | QVQLVESGGGLVQAGGSLRLSCAASGRIFGGYAMGWYRQAPGKERELVAVINGGTSTKYADSVKGRFTISRDNAKNTVYLQMNSLKPEDNAVYYCAKTRHDSLQNRNRYDYWGQGTQVTVSS | low polyreactivity
2 | QVQLVESGGGLVQAGGSLRLSCAASGSTFNWNAMGWYRQAPGKERELVAAITSSGARTRYADSVKGRFTISRDNAKNTVYLQMNSLKPEDTAVYYCAAYVYISPSGYYYWGQGTQVTVSS | high polyreactivity
3 | QVQVVESGGGLVQAGGSLRLSCAASGSTFTIYAMGWYRQAPGKERELVALITWSGGSTYYADSVKGRFTISRDNAKNTVYLQMNSLKPEDTAVYYCAADYYRPVPGGYYWGQGTQVTVSS | high polyreactivity
4 | QVQLVESGGGLVQAGGSLRLSCAASGSTFAPNAMGWYRQAPGKERELVAGISWGDSTYYADSVKGRFTISRDNAKNTVYLQMNSLKPEDTAVYYCNVDDPFYSGVVEFDYWGQGTQVTVSS | low polyreactivity
5 | QVQLVESGGGLVHAGGSLGLSCAASGSIFYEYVMGWYRQAPGKERELVATIDLNGGSTTYADSVKGRFTISRDNAKNTDYLQMNSLKPEDTAVYYCAAQTGFVSHFFWHYDYWGQGSQVTVSS | low polyreactivity
6 | QVQLVESGGGLVQAGGSLRLSCAASGITFYYYAMGWYRQAPGKERELVAAISSGGRTYYADSVKGRFTISRDNAKNTVYLQMNSLKPEDTAVYYCAASFLVTSREYDYWGQGTQVTVSS | high polyreactivity
7 | QVQLVESGGGLVQAGGSLRLSCAASGSTLPGNTMGWYRQAPGKERELVAAISKSGGTTYYADSVKGRFTISRDYAKNTVYLQMNSLKPEDTAVYYCAAKPWVWVYARYGKHPSYDYWGQGTQVTVSS | high polyreactivity
8 | QVQLVESGGCLVQAGGSLRLSCAASGRTLHYYAMGWYIPAPGKVRELVARINWSGGSTYYADSVKGRFTISRDNAKKTVYLQMNSLKPEDTAVYYCAARKNRAYGYWGQGTQVTVSS | high polyreactivity
9 | QVQLVESGGGLVQAGGSLRLSCAASGLIFYPYAMGWYRQAPGKERELVAGISSSGDSTYYADSVKGRFTISRDNAKNTVYLQMNSLKPEDNAVYYCNTGWDPYGYDYWGQGTQVTVSS | low polyreactivity
10 | QVQLVESRGGLVQAGGSLRLSCAASGRTRFYAMGRYIQAPGKERELVAVINASGDSTYYADSVKGRFTISRDNAKITVYLQMNSLKPEDTAVYYCAGDNRGEYDYWGQGTQVTVSS | low polyreactivity
11 | QVQIVESRVGLVQAGGSLRLSCAASGLTFYYYAMGWYRQAPGKERELVAAIDGSGGITYYEDSLKARFTISRDNEKNTVYLQMNSLKPEDTAVYYCAAERVVGDAYDYWGQGTQVTVSS | high polyreactivity
12 | QVQLVESGGGLVQAGGSLRLSCAASGRTFSRYAMGWYRQAPGKERELVAAITSGGGSTYYADSVKGRFTISRDNAKNTVYLQMNSLKPEDTAVYYCAARTSGDGWIYYYWGQGTQVTVSS | high polyreactivity
13 | QVQLVESGGGLVQAGGSLRLSCAASGSTFVIYGMGWYRQAPGKERELVADITWIGGSTYYADSVKGRFTISRDNAKNTVYLQMNSLKPEDTAVYYCAADAAYLYLYNWYDTEDDYWGEGTQVTVSS | low polyreactivity
14 | QVQLVESGGGLVQAGGSLRLSCAASGRTFTGNAMGWYRQAPGKERELVAAISFSGASTYYADSVKGRFTISRDNAKNTVYLQMNSLKPEDTAVYYCNADSRYRSFDYWGQGTQVTVSS | high polyreactivity
15 | QVQLVESGGGLDQSGGSLRLTCAASGFTFVINDMGRYIHAPGKEMEWVADITSGGDTYYADSVKGRFTISRDNAKNTVYLQSNRLKPEDTAVYYCAADIYPDWIYLLYGYWGQGTQVNVSS | low polyreactivity
16 | QVQLVESGGGLVHAGGRLRLSCAASGRISGYAMAWYRQAPRTERELVAAISTRGGTTYYADSVKGRFTISRDNAKNTVYLQMNSLKPEDTAVYFCNAASSRWPEYDFWGQGTQVTVSS | high polyreactivity

Row | Sequence | polyreactivity (PSR sort gate)
17 | QVQLVESGGGLVQAGGSLRLSCAASGLIFVAYAMGWYRQAPGKERELVAAISRNGGSTYYADSVKGRFTISRDNAKNTVYLQMNSLKPEDTAVYYCAARYAYYTARYTQVKGLDYWGQGTLVTVSS | high polyreactivity
18 | QVQLEESGGGLVQAGGSLRLSCAASGRISAKYAMGWYRKAPGKERELVASISWSGGSTYYADSVKGRFTISRDNAKNTVYLQMNSLKPEDTAVYYCAADLTQQRGVRGMDYWGQGTQVTVSS | low polyreactivity
19 | QVQLVESGGGLVQAGGSLRLSCAASGRTFRAYAMGWYRQAPGKERELVARISWSGGNTYYADSVKGRFTISRDNAKNTVYLQMNSLKPEDTAVYYCAKTYYPYPAQIYTGYSWGQGTQVTVSS | low polyreactivity
20 | QVQLVESGGGLVQAGGSLRLSCAASGSTLYRYAMGWYRQAPGKERELVAAISSSGGSTYYADSVKGRFTISRDNAKNTVYLQMNSLKPEDTAVYYCAATSSFYFILYDYWGQGTQVTVSS | high polyreactivity
21 | QVQLVESGGGLVQAGGSLRLSCAASGITFGHYAMGWYRQAPGKERQLVAGINWSGDGRYYADSVKGRFTISRDNAKNTVYLQMNSLKPEDTAVYYCDAETFYDYGGYDYWGQGTQVTVSS | low polyreactivity
22 | QVQLVESGGGLVQAGGSLRLSCAASGIISSTNAMGWYRQEPGKERELVAAISGRGSGTYYADSVKGRFTISRDNAKNTVYLQMNRLKPEDTAVYYCAALSNVFQWWFKTNKSRYDYWGQGTQVTVSS | high polyreactivity
23 | QVQLVESGGGLVQAGGSLRLSCAASGFIFRPNAMGWYRQAPGKERELVAAITRDGDRTYYADSVKGRFTISRDNAKNTVYLQMNSLKPEETAVYYCAADVIQWWTRYYTWEYDYWGQGTQVTVSS | low polyreactivity
24 | QVQLVESGGGFVQAGGSLRLSCAASGNIFPYNAMGWYRQAPGKERELVAAISSGGSTNYADSVKGRFTISRDNAKNTVYLQLNSLQPEDTAVYYCAAARSGGYDYWGQGTQVTVSS | low polyreactivity
25 | QVQLVESGGGLVQAGGSLRLSCAASGRTFKDYAMGWYRPAPGKERELVAAISWSGGDTYYADSVKGRFTISRDNAKNTVYLQMNSLKPEDTAVYYCNADPSGVFFYSLEFDYWGQGTQVTVSS | low polyreactivity
26 | QVQLVESGGGLVQAGGSLRLSCAASGSIFGVYAMGWYRQAPGKERELVATISRSGAITYYADSVKGRFTISRDNAKNTVYLQMNSLKPEDTAVYYCAADFFSRDWGQGTQVTVSS | low polyreactivity
27 | QVQLVESGGGLVQAGGRLSLSCAASGSIFEKNAIGWYIQAPGKERELFAAISSSGGRTNYADSVKGRYTISRDNAKITVYFQMNSLKPEDTAVYYCAAYRRGHRYPGYEYWGQGTQVTVSS | high polyreactivity
28 | QVQLVESGGGIVQAGGSLRLSCASSGRTFFWYAMVWYRQAPGKERELVAAITYRGGGTYYADSVKGRFTISRDNAKNTVYLQMNSLKPEDTAVYYCAAEYWVGVYLYDYWGQGTQVTVSS | high polyreactivity
29 | PVQHVESGGGLVQAGGSLRLSCAASGSTLRTYAMGWYRQAPGKERELVAAISFSTTSTYYADSVKGRFTISRDNAKNTVYLQMNSLKPEDTADYYCAAGPRTRYQPDLPGCYYSWGQGTQVTVSS | high polyreactivity
30 | QVQLVESGGGLDQAGGSLRLSCAASGSIFGTNTMGWYRQSPGKERELVAAIRLSDSSTYYADSVKGRFTISRDNAKNTVYLQMNSLKPEDTAVYYCAVDYRAYHYYRYDYWGQGTQVTVSS | low polyreactivity
31 | QVQLVESGGGLVQAGGSLRLSCAASGSIFFWNTMGWYRQAPGKERELVAAISSGGSTYYADSVKGRFTISRDTAKNTVYLQMNSLRPEDTAVYYCAAVYSGLYSYYYWGQGTQVTVSS | low polyreactivity

From the nanobody polyreactivity screen of Harvey et al. (2022)
